Test results taken from patent US20220332804A1 (CSL INNOVATION, published 2022).

Key:
Assay in all cases: SPR, antibody captured, C2 as analyte;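 further: biacore SPR at 37 °C, anti-C2 mAbs captured via goat anti-human IgG on CM5 chips, double-referenced sensorgrams fit to a 1:1 kinetic or steady-state model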
[1] = target: T1, human C2 D282A (human, UniProt P06681 21-752)
T1 sequence: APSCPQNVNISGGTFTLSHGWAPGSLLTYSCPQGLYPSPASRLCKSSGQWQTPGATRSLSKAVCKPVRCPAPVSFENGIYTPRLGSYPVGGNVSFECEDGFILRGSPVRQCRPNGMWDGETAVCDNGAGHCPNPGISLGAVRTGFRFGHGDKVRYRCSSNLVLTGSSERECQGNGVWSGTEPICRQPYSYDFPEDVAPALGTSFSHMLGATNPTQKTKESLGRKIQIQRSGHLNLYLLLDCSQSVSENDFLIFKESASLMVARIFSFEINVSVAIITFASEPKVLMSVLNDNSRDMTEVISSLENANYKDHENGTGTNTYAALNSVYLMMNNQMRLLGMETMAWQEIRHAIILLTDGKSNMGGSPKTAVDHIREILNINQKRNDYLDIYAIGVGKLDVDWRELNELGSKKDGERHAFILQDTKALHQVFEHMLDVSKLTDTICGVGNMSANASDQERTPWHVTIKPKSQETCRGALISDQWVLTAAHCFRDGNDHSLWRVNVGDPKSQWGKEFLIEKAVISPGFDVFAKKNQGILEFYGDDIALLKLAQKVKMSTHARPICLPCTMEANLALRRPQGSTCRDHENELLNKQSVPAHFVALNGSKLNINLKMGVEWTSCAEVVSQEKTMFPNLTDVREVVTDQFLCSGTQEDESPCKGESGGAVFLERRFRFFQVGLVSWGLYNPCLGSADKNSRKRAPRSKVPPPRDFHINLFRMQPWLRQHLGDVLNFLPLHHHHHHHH

[2] = target: T2, human C2 R493A (human, UniProt P06681 21-752)
T2 sequence: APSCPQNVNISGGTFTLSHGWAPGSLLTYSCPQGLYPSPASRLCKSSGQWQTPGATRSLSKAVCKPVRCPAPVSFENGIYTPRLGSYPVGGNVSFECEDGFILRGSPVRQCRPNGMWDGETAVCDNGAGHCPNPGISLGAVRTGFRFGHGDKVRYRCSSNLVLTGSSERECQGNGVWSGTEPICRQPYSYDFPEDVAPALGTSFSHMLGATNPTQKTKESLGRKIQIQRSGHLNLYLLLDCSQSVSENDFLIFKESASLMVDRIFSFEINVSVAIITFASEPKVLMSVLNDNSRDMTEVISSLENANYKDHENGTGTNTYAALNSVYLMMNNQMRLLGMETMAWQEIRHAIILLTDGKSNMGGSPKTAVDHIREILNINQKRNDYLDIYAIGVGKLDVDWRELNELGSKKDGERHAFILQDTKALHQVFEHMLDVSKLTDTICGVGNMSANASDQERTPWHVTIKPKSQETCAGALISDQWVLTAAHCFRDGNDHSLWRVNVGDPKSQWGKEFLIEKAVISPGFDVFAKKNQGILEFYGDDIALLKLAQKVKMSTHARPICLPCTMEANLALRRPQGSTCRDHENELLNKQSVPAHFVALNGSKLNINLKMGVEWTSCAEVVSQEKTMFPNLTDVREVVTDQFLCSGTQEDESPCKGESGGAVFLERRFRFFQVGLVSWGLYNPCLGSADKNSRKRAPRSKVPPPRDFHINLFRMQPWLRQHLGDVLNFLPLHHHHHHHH

[3] = target: T3, human C2 N268A (human, UniProt P06681 21-752)
T3 sequence: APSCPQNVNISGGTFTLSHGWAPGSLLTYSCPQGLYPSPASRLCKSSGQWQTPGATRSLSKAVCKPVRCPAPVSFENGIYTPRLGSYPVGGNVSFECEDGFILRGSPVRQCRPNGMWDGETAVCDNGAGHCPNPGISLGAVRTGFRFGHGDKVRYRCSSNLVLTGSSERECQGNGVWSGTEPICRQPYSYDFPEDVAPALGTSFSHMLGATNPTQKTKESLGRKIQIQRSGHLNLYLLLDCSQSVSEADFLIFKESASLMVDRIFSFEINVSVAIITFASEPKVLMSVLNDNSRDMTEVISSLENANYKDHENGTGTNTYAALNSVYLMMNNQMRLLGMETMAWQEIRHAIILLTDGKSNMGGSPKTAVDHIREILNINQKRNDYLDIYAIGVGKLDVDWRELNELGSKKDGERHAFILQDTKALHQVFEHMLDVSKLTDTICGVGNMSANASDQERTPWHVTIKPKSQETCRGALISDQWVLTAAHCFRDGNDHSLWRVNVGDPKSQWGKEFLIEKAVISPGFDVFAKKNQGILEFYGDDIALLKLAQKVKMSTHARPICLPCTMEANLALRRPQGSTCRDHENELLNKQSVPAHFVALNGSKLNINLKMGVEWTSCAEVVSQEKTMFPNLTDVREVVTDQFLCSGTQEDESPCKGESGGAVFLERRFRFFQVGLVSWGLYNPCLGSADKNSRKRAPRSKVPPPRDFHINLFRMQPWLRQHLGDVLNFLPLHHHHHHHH

[4] = target: T4, human C2 T647A (human, UniProt P06681 21-752)
T4 sequence: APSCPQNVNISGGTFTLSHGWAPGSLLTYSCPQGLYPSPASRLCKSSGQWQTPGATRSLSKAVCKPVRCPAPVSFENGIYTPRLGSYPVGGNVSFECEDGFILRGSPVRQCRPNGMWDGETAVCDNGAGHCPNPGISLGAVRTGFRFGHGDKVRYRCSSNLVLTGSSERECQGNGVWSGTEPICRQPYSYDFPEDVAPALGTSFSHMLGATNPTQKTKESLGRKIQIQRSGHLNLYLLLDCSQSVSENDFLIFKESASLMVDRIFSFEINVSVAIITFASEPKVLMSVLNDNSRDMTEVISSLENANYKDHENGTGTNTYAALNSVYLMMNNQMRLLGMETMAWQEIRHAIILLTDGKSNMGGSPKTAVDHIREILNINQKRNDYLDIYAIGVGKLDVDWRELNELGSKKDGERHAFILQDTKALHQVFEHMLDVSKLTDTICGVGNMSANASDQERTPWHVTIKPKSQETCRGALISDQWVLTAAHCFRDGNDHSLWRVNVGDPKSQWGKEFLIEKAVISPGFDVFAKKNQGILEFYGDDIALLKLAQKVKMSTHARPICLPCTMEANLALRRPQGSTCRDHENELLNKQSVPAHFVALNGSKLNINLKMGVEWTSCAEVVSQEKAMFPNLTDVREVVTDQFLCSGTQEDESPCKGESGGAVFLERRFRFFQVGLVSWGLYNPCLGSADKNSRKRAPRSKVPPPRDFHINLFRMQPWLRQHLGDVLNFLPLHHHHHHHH

B1: RF16-226 (antibody, human IgG4 S228P, lambda)
heavy: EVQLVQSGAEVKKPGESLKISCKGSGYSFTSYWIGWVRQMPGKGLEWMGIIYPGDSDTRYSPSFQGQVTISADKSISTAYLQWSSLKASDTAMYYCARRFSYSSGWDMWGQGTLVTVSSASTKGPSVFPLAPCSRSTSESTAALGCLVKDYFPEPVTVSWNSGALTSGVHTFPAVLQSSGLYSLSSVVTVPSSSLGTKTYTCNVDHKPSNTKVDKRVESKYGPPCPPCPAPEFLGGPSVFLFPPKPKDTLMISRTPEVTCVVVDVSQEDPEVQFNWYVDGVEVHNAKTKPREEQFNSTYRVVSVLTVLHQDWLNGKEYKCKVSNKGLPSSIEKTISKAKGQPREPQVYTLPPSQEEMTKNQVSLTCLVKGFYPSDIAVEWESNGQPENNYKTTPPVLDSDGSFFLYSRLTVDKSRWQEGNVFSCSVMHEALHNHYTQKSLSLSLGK
light: SYELTQPPSVSVSPGQTARITCSGDALTSKYVAWYQQKSGLAPLLVIYEDTRRPSGIPAKFSGSSSGSVATLTISGAHGDDEADYYCYSTDASGHQRVFGGGTKLTVLSQPKAAPSVTLFPPSSEELQANKATLVCLISDFYPGAVTVAWKADGSPVKAGVETTKPSKQSNNKYAASSYLSLTPEQWKSHRSYSCQVTHEGSTVEKTVAPTECS
notes: pH-dependent anti-C2 antibody from a phage display library; also called WT
Kd [1]: 8.9 nM | Kd [2]: 24.3 nM | Kd [3]: 11.8 nM | Kd [4]: 147 nM
